The values below come from patent US20170362327A1 (GLENMARK PHARMACEUTICALS S A, published 2017).

In experiment [1] the target is T1, monovalent human TrkA extracellular region (human, UniProt P04629 33-423).
T1 construct: also called recombinant monovalent human TrkA extracellular domain
Put plainly: SPR (BIAcore 2000), antibody captured via Fc, monovalent TrkA extracellular region as analyte. How it is done:
(§1) SPR analysis was used to measure the association and dissociation rate constants for the binding kinetics of the different antibodies (mouse and humanized antibodies). The binding kinetics of the mouse antibody and humanized variants were measured on a BIACORE 2000 instrument (GE Healthcare Europe GmbH, Glattbrugg, Switzerland) at room temperature, and analyzed with the BiaEvaluation software (v4.1, GE Healthcare Europe GmbH, Glattbrugg, Switzerland).
(§2) Antibodies were immobilized via capture of their Fc portion to allow for correct orientation on the sensor chip surface. A monoclonal mouse anti-human IgG (Fc) antibody sensor chip was used to capture all humanized antibodies regardless of their isotypes (Human Antibody Capture Kit, catalogue number BR-1008-39, GE Healthcare Europe GmbH), and a polyclonal rabbit anti-mouse immunoglobulin sensor chip was used to capture the MNAC13 mouse antibody (Mouse Antibody Capture Kit, catalogue number BR-1008-38, GE Healthcare Europe GmbH).
(§3) Data (sensorgram: fc2-fc1) were fitted with a 1:1 Langmuir model with mass transfer in spite of having little mass transfer limitation in mass transfer tests. To account for the experimental variations in captured antibody at the beginning of each measurement, the Rmax value was set to local in all fits. Dissociation times were of at least 350 seconds. Measurements were performed in triplicate, and included zero-concentration samples for referencing. Both Chi2 and residual values were used to evaluate the quality of a fit between the experimental data and individual binding models.

Experiment [2] deals with T1, monovalent human TrkA extracellular …. Put plainly: SPR, against BXhVH5VL1. How it is done:
as §1, §2, §3
A general note: In SPR one partner is held on a chip, and binding of the other changes the refractive index at the surface.

Experiment [3] has the same target. Put plainly: SPR (BIAcore 2000), antibody captured via Fc, monovalent TrkA extracellular region as analyte. Here is the method:
as §1, §2, §3
The source holds these as a separate data set.

For experiment [4] the target is unchanged. Put plainly: SPR (BIAcore 2000), antibody captured via anti-mouse immunoglobulin, monovalent TrkA extracellular region as analyte. Here is the method: as §1, §2, §3

T1 sequence (P04629 33-423): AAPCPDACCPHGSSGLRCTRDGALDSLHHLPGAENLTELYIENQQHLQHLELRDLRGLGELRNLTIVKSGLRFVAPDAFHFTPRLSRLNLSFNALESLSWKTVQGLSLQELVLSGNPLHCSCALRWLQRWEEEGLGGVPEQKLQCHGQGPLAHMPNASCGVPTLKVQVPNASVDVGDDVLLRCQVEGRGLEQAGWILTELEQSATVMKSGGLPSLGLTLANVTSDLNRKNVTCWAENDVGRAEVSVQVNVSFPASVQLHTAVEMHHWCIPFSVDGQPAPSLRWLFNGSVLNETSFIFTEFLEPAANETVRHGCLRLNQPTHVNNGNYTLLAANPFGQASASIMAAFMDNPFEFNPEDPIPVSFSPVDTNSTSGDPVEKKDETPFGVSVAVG

B1: BXhVH1VL1 (antibody, human IgG1, kappa, V domains shown)
VH: EVQLLESGGGLVQPGGSLRLSCAASGFTFSTYTMSWVRQAPGKGLEWVSYISKGGGSTYYPDTVKGRFTISRDNSKNTLYLQMNSLRAEDTAVYYCAKGAMYGNDFFYPMDYWGQGTTVTVSS
VL: EIVLTQSPATLSLSPGERATLSCSASSSVSYMHWYQQKPGQAPRLLIYTTSNLASGIPARFSGSGSGTDFTLTISSLEPEDFAVYYCHQWSSYPWTFGQGTKLEIKR
notes: IGHG1, kappa
As for B1, in experiment [1], the Kd amounted to 426 nM, the koff was determined as 0.0133 s⁻¹ and the kon was 31300 M⁻¹ s⁻¹.

B2: GBR VH5(K3Q,V37A)VL1 (antibody, human IgG1, kappa)
heavy: not shown
light: EIVLTQSPATLSLSPGERATLSCSASSSVSYMHWYQQKPGQAPRLLIYTTSNLASGIPARFSGSGSGTDFTLTISSLEPEDFAVYYCHQWSSYPWTFGQGTKLEIKRTVAAPSVFIFPPSDEQLKSGTASVVCLLNNFYPREAKVQWKVDNALQSGNSQESVTEQDSKDSTYSLSSTLTLSKADYEKHKVYACEVTHQGLSSPVTKSFNRGEC
notes: IGHG1, kappa
As for B2, the “fold decrease of KD against BXhVH5VL1” value in experiment [2] stood at 2.7 fold. The molecule also yielded a Kd in experiment [3] of 15.4 nM. In experiment [1], this molecule returned a Kd of 15.4 nM, a koff of 0.00262 s⁻¹ and a kon of 170000 M⁻¹ s⁻¹.

B3: BXhVH3VL3 (antibody, human IgG1, kappa, V domains shown)
VH: EVQLLESGGGLVQPGGSLRLSCAASGFTFSTYTMSWVRQTPGKRLEWVAYISKGGGSTYYPDTVKGRFTISRDNSKNTLYLQMNSLRAEDTAVYYCAKGAMYGNDFFYPMDYWGQGTTVTVSS
VL: QIVLTQSPATLSLSPGERATLSCSASSSVSYMHWYQQKPGQSPRLLIYTTSNLASGIPSRFSGSGSGTFYTLTISSLEPEDFAVYYCHQWSSYPWTFGGGTKLEIKR
notes: IGHG1, kappa
On to B3, for which, in experiment [1], binding was put at a Kd of 134 nM, the off-rate (koff) was found to be 0.00459 s⁻¹ and the kon was 31400 M⁻¹ s⁻¹.

B4: GBR VH5(R94K)VL1 (antibody, human IgG1, kappa)
heavy: not shown
light: EIVLTQSPATLSLSPGERATLSCSASSSVSYMHWYQQKPGQAPRLLIYTTSNLASGIPARFSGSGSGTDFTLTISSLEPEDFAVYYCHQWSSYPWTFGQGTKLEIKRTVAAPSVFIFPPSDEQLKSGTASVVCLLNNFYPREAKVQWKVDNALQSGNSQESVTEQDSKDSTYSLSSTLTLSKADYEKHKVYACEVTHQGLSSPVTKSFNRGEC
notes: IGHG1, kappa
The molecule B4 returned a dissociation constant Kd in experiment [3] of 52 nM.

B5: GBR VH5(K3Q, V37A, T40A, P60A, T62S)VL1 (antibody, human IgG1, kappa, V domains shown)
VH: EVQLLESGGGLVQPGGSLRLSCAASGFTFSTYTMSWARQAPGKRLEWVAYISKGGGSTYYADSVKGRFTISRDNSKNTLYLQMNSLRAEDTAVYYCARGAMYGNDFFYPMDYWGQGTTVTVSS
VL: EIVLTQSPATLSLSPGERATLSCSASSSVSYMHWYQQKPGQAPRLLIYTTSNLASGIPARFSGSGSGTDFTLTISSLEPEDFAVYYCHQWSSYPWTFGQGTKLEIKR
notes: IGHG1, kappa
In turn, B5 gave a Kd in experiment [3] of 48 nM.

B6: BXhVH3VL1 (antibody, human IgG1, kappa)
heavy: not shown
light: EIVLTQSPATLSLSPGERATLSCSASSSVSYMHWYQQKPGQAPRLLIYTTSNLASGIPARFSGSGSGTDFTLTISSLEPEDFAVYYCHQWSSYPWTFGQGTKLEIKRTVAAPSVFIFPPSDEQLKSGTASVVCLLNNFYPREAKVQWKVDNALQSGNSQESVTEQDSKDSTYSLSSTLTLSKADYEKHKVYACEVTHQGLSSPVTKSFNRGEC
notes: IGHG1, kappa
With B6, in experiment [1], the Kd was determined as 133 nM, the koff came to 0.00619 s⁻¹ and the association rate constant (kon) was 46500 M⁻¹ s⁻¹.

B7: GBR VH5(V37A)VL1 (antibody, human IgG1, kappa)
heavy: not shown
light: EIVLTQSPATLSLSPGERATLSCSASSSVSYMHWYQQKPGQAPRLLIYTTSNLASGIPARFSGSGSGTDFTLTISSLEPEDFAVYYCHQWSSYPWTFGQGTKLEIKRTVAAPSVFIFPPSDEQLKSGTASVVCLLNNFYPREAKVQWKVDNALQSGNSQESVTEQDSKDSTYSLSSTLTLSKADYEKHKVYACEVTHQGLSSPVTKSFNRGEC
notes: IGHG1, kappa; also called GBR VH5(V37A)VL1 IGHG1 antibody; GBR VH5 (V37A)VL1 antibody
As for B7, in experiment [2], the “fold decrease of KD against BXhVH5VL1” value is 2.5 fold and the “fold increase in affinity against BXhVH5VL1” value is 2.5 fold. In experiment [3], this molecule showed an equilibrium dissociation constant (Kd) of 16 nM. Besides, in experiment [1], binding was characterised by a dissociation constant (Kd) of 16 nM, the koff was determined as 0.00225 s⁻¹ and the kon worked out at 140000 M⁻¹ s⁻¹.

B8: GBR VH1(V37A)VL1 (antibody, human IgG1, kappa, V domains shown)
VH: EVQLLESGGGLVQPGGSLRLSCAASGFTFSTYTMSWARQAPGKGLEWVSYISKGGGSTYYPDTVKGRFTISRDNSKNTLYLQMNSLRAEDTAVYYCAKGAMYGNDFFYPMDYWGQGTTVTVSS
VL: EIVLTQSPATLSLSPGERATLSCSASSSVSYMHWYQQKPGQAPRLLIYTTSNLASGIPARFSGSGSGTDFTLTISSLEPEDFAVYYCHQWSSYPWTFGQGTKLEIKR
notes: IGHG1, kappa
As for B8, in experiment [1], the equilibrium dissociation constant (Kd) turned out to be 338 nM, the off-rate (koff) amounted to 0.00663 s⁻¹ and the kon came to 19600 M⁻¹ s⁻¹.

B9: BXhVH5VL3 (antibody, human IgG1, kappa, V domains shown)
VH: EVKLLESGGGLVQPGGSLRLSCAASGFTFSTYTMSWVRQTPGKRLEWVAYISKGGGSTYYPDTVKGRFTISRDNSKNTLYLQMNSLRAEDTAVYYCARGAMYGNDFFYPMDYWGQGTTVTVSS
VL: QIVLTQSPATLSLSPGERATLSCSASSSVSYMHWYQQKPGQSPRLLIYTTSNLASGIPSRFSGSGSGTFYTLTISSLEPEDFAVYYCHQWSSYPWTFGGGTKLEIKR
Regarding B9, in experiment [1], the dissociation constant Kd came to 63 nM, the koff is 0.00395 s⁻¹ and the kon is 62300 M⁻¹ s⁻¹.

B10: GBR VH5(K3Q, V37A, R44G)VL1 (antibody, human IgG1, kappa, V domains shown)
VH: EVQLLESGGGLVQPGGSLRLSCAASGFTFSTYTMSWARQTPGKGLEWVAYISKGGGSTYYPDTVKGRFTISRDNSKNTLYLQMNSLRAEDTAVYYCARGAMYGNDFFYPMDYWGQGTTVTVSS
VL: EIVLTQSPATLSLSPGERATLSCSASSSVSYMHWYQQKPGQAPRLLIYTTSNLASGIPARFSGSGSGTDFTLTISSLEPEDFAVYYCHQWSSYPWTFGQGTKLEIKR
notes: IGHG1, kappa
As to B10, binding in experiment [3] was characterised by a dissociation constant (Kd) of 20 nM.

B11: GBR VH5(V37A)VL3 (antibody, human IgG1, kappa, V domains shown)
VH: EVKLLESGGGLVQPGGSLRLSCAASGFTFSTYTMSWARQTPGKRLEWVAYISKGGGSTYYPDTVKGRFTISRDNSKNTLYLQMNSLRAEDTAVYYCARGAMYGNDFFYPMDYWGQGTTVTVSS
VL: QIVLTQSPATLSLSPGERATLSCSASSSVSYMHWYQQKPGQSPRLLIYTTSNLASGIPSRFSGSGSGTFYTLTISSLEPEDFAVYYCHQWSSYPWTFGGGTKLEIKR
notes: IGHG1, kappa
Consider B11, for which, in experiment [1], binding was put at a Kd of 28 nM, the off-rate constant (koff) was 0.00205 s⁻¹ and the association rate constant (kon) turned out to be 74500 M⁻¹ s⁻¹.

B12: GBR VH3(V37A)VL3 (antibody, human IgG1, kappa, V domains shown)
VH: EVQLLESGGGLVQPGGSLRLSCAASGFTFSTYTMSWARQTPGKRLEWVAYISKGGGSTYYPDTVKGRFTISRDNSKNTLYLQMNSLRAEDTAVYYCAKGAMYGNDFFYPMDYWGQGTTVTVSS
VL: QIVLTQSPATLSLSPGERATLSCSASSSVSYMHWYQQKPGQSPRLLIYTTSNLASGIPSRFSGSGSGTFYTLTISSLEPEDFAVYYCHQWSSYPWTFGGGTKLEIKR
notes: IGHG1, kappa
In experiment [1], B12 returned a dissociation constant Kd of 95 nM, a koff of 0.00295 s⁻¹ and an on-rate constant (kon) of 31000 M⁻¹ s⁻¹.

B13: GBR VH3(V37A)VL1 (antibody, human IgG1, kappa, V domains shown)
VH: EVQLLESGGGLVQPGGSLRLSCAASGFTFSTYTMSWARQTPGKRLEWVAYISKGGGSTYYPDTVKGRFTISRDNSKNTLYLQMNSLRAEDTAVYYCAKGAMYGNDFFYPMDYWGQGTTVTVSS
VL: EIVLTQSPATLSLSPGERATLSCSASSSVSYMHWYQQKPGQAPRLLIYTTSNLASGIPARFSGSGSGTDFTLTISSLEPEDFAVYYCHQWSSYPWTFGQGTKLEIKR
notes: IGHG1, kappa
Consider B13, for which, in experiment [1], the affinity, expressed as Kd, was 123 nM; the koff stood at 0.00471 s⁻¹; the association rate constant (kon) came out at 38200 M⁻¹ s⁻¹.

B14: GBR VH5(V37A)VL1 IGHG4 S228P (antibody, human IgG4 S228P, kappa)
heavy: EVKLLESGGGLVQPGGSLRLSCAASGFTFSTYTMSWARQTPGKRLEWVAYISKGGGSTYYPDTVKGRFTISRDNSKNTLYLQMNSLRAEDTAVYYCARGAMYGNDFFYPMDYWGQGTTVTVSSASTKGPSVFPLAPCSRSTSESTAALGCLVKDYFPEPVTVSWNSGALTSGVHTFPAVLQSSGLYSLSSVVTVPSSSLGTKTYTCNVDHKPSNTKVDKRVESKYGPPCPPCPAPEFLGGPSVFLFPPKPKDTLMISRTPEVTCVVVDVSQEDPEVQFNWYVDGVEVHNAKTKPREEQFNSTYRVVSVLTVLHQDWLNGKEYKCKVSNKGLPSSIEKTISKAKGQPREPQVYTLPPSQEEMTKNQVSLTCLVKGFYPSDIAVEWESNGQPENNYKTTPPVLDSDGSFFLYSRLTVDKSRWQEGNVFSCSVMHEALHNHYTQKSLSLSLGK
light: EIVLTQSPATLSLSPGERATLSCSASSSVSYMHWYQQKPGQAPRLLIYTTSNLASGIPARFSGSGSGTDFTLTISSLEPEDFAVYYCHQWSSYPWTFGQGTKLEIKRTVAAPSVFIFPPSDEQLKSGTASVVCLLNNFYPREAKVQWKVDNALQSGNSQESVTEQDSKDSTYSLSSTLTLSKADYEKHKVYACEVTHQGLSSPVTKSFNRGEC
notes: IGHG4 isotype with S228P (EU) hinge substitution, kappa
The molecule B14 gave a Kd in experiment [3] of 15 nM.

B15: GBR VH5(K3Q,V37A)VL1 IGHG4 S228P (antibody, human IgG4 S228P, kappa)
heavy: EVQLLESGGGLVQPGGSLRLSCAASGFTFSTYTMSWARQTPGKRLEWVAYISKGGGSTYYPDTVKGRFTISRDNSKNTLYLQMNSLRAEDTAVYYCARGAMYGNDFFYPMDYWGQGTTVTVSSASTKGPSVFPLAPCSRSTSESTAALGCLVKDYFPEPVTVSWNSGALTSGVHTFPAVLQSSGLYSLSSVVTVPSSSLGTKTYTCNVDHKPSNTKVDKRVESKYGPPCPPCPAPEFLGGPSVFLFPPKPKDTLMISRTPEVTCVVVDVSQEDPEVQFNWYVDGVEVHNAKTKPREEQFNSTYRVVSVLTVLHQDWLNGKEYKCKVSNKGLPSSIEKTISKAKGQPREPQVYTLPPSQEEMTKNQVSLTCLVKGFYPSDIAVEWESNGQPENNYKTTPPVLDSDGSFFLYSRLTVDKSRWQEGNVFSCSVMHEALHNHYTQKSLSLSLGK
light: EIVLTQSPATLSLSPGERATLSCSASSSVSYMHWYQQKPGQAPRLLIYTTSNLASGIPARFSGSGSGTDFTLTISSLEPEDFAVYYCHQWSSYPWTFGQGTKLEIKRTVAAPSVFIFPPSDEQLKSGTASVVCLLNNFYPREAKVQWKVDNALQSGNSQESVTEQDSKDSTYSLSSTLTLSKADYEKHKVYACEVTHQGLSSPVTKSFNRGEC
notes: as for B14
In experiment [3], B15 registered a dissociation constant Kd of 15 nM. In other words, the double-digit nanomolar range.

B16: MNAC13 mouse antibody (antibody, mouse IgG1, kappa, V domains shown)
VH: EVKLVESGGGLVQPGGSLKLSCAASGFTFSTYTMSWARQTPEKRLEWVAYISKGGGSTYYPDTVKGRFTISRDNAKNTLYLQMSSLKSEDTALYYCARGAMYGNDFFYPMDYWGQGTSVTVSS
VL: QIVLTQSPAIMSASLGEEITLTCSASSSVSYMHWYQQKSGTSPKLLIYTTSNLASGVPSRFSGSGSGTFYSLTISSVEAEDAADYYCHQWSSYPWTFGGGTKLEIKA
notes: Mouse monoclonal anti-TrkA antibody; also called parental murine antibody
Consider B16, for which, in experiment [4], the Kd was 18 nM, the koff was 0.00109 s⁻¹ and the kon amounted to 60200 M⁻¹ s⁻¹.

The term Kd denotes the concentration at which binding is half-saturated. A lower Kd goes with higher affinity. What is called koff is the rate constant with which the complex falls apart. A low value points to a long-lived complex. What is called kon is the second-order rate constant of association.
